Each block holds one binder with its values, some of them ahead of it.
What was measured:
[1] = target: Full-length Aβ42; experiment: cell-based or functional assay
[2] = target: Full-length Aβ40; experiment: cell-based or functional assay

t50 of ThT fibril growth of Aβ42 monomer with p3_(42) fibril seeds (10% w/w), as a percentage relative to self-seeding [1]: > 70 % relative to self-seeding t50
B1: p3_(42) Peptide Aβ_(17-42) (peptide)
peptide: LVFFAEDVGSNKGAIIGLMVGGVVIA
notes: numbers count on: the Aβ peptide; Used as SEC-purified monomer, as lag-phase oligomer preparation and as fibril seeds; source: synthetic peptide, bought: EZBiolab Inc; solubilized at pH 10, monomer isolated by SEC

t50 of ThT fibril growth of Aβ40 monomer with p3_(40) fibril seeds (10% w/w), as a percentage relative to self-seeding [2]: 70 % relative to self-seeding t50
B2: p3_(40) Peptide Aβ_(17-40) (peptide)
peptide: LVFFAEDVGSNKGAIIGLMVGGVV
notes: as for B1
